Molecular target: GFP [GFP: P42212]
Assay: sandwich cD-IPCR: GFP in buffer captured by anti-GFP pAb on plate, bound cDNA display quantified by qPCR (ΔCt)

cDNA display presenting anti-GFP VHH (LaG-16), sequence (VHH): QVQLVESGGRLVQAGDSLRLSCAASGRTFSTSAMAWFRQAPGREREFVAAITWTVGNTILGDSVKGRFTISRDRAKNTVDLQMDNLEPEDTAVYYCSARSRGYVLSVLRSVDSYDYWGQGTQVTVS

lowest detected GFP concentration (sandwich cD-IPCR): 10 ng/mL
Substance: cDNA display presenting anti-GFP VHH (LaG-16)

Reference: patent publication US20210381026A1
